Target: human RPN2, wild type, full length (human) (UniProt Q99460)
Experiment: MST

Chain of human RPN2, wild type, full length (human) (Q99460 whole entry): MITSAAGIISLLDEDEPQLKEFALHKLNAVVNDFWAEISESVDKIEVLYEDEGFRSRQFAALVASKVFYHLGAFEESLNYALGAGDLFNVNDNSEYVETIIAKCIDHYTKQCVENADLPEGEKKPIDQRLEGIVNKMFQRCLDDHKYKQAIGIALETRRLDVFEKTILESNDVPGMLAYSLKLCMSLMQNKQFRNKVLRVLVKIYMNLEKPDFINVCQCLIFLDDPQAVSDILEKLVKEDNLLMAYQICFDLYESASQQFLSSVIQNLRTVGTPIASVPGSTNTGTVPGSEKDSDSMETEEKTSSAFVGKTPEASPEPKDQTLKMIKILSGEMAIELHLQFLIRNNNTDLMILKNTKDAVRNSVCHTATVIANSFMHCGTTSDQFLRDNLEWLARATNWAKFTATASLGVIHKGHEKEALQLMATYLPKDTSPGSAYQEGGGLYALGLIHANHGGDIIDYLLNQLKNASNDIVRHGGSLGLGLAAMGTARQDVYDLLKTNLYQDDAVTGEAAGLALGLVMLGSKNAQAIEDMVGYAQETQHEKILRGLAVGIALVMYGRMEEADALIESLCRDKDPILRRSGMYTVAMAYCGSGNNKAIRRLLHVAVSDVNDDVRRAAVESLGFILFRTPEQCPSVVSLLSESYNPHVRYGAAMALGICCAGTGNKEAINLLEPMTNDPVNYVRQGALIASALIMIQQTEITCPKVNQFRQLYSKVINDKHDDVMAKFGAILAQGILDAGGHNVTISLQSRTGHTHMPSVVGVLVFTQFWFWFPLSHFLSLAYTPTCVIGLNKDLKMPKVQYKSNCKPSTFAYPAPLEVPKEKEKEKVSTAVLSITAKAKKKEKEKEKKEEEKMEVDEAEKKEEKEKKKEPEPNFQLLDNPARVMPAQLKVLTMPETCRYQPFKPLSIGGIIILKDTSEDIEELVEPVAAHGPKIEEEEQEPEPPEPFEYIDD

A Kd of 2120 µM was found for “mono-ubiquitin (from UniProt P0CG48 1-76) (natural protein; other documents disagree on this pair)” in this work.
